pKd: −log10 of the molar value.
Experiments:
[1] = target: biotin-labeled T-47D culture supernatant (MUC1) (human) (UniProt P15941); test: SPR, Biacore, biotin-labeled T-47D culture supernatant on sensor chip SA
Biotin-Tn(DT*R)-100 = test: SPR, Biacore T100, Biotin-Tn(DT*R)-100 on sensor chip SA

T100 sequence (peptide, as listed by the source limits assumed): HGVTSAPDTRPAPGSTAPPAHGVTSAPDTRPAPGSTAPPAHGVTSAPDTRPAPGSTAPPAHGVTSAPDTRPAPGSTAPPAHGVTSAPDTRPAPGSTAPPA
Sequence of biotin-labeled T-47D culture supernatant (MUC1) (human) (P15941 24-1097 limits assumed): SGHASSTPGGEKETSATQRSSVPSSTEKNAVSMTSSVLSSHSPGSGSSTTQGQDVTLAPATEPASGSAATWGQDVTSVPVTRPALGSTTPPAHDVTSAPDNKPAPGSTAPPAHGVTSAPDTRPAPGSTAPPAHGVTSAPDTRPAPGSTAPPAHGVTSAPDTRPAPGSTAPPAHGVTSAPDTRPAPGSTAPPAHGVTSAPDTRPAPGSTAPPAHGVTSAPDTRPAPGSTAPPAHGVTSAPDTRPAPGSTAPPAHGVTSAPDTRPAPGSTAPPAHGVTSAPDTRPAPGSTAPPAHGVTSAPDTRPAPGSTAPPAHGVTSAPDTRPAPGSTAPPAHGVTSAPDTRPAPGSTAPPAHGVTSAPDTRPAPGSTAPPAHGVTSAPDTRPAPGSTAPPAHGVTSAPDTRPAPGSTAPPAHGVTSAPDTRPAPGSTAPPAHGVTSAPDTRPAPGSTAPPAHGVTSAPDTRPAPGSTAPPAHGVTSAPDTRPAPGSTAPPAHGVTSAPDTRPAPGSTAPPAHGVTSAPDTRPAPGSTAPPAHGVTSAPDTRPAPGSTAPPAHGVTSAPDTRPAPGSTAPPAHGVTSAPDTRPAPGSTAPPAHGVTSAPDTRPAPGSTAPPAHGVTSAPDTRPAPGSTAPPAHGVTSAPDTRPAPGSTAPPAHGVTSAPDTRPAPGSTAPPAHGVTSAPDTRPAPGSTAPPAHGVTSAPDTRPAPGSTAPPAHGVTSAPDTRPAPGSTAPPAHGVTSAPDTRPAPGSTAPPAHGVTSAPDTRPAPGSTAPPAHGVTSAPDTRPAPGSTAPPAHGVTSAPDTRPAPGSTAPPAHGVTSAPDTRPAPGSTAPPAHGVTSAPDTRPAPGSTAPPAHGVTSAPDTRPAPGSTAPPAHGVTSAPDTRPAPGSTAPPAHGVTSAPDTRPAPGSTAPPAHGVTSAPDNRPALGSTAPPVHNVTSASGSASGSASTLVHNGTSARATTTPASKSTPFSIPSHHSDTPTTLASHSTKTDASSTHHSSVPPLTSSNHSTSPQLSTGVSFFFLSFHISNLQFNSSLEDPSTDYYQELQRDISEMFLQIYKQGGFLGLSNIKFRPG

Substance	pKd [1]	koff [1] [s⁻¹]	kon [1] [M⁻¹ s⁻¹]	pKd (Biotin-Tn(DT*R)-100)	koff (Biotin-Tn(DT*R)-100) [s⁻¹]	kon (Biotin-Tn(DT*R)-100) [M⁻¹ s⁻¹]
VU-3C6 (antibody)	6.82	0.015	110000	6.08	0.051	61000
C595 (antibody)	6.24	0.026	44000	6.14	0.012	16000
VU-2G7 (antibody)	6.74	0.099	550000	6.74	0.064	360000
